From IntAct's records for PubMed 20126259

B1: Serine/threonine-protein kinase RAD53 (Saccharomyces cerevisiae), P22216 (parent)
chain: MENITQPTQQSTQATQRFLIEKFSQEQIGENIVCRVICTTGQIPIRDLSADISQVLKEKRSIKKVWTFGRNPACDYHLGNISRLSNKHFQILLGEDGNLLLNDISTNGTWLNGQKVEKNSNQLLSQGDEITVGVGVESDILSLVIFINDKFKQCLEQNKVDRIRSNLKNTSKIASPGLTSSTASSMVANKTGIFKDFSIIDEVVGQGAFATVKKAIERTTGKTFAVKIISKRKVIGNMDGVTRELEVLQKLNHPRIVRLKGFYEDTESYYMVMEFVSGGDLMDFVAAHGAVGEDAGREISRQILTAIKYIHSMGISHRDLKPDNILIEQDDPVLVKITDFGLAKVQGNGSFMKTFCGTLAYVAPEVIRGKDTSVSPDEYEERNEYSSLVDMWSMGCLVYVILTGHLPFSGSTQDQLYKQIGRGSYHEGPLKDFRISEEARDFIDSLLQVDPNNRSTAAKALNHPWIKMSPLGSQSYGDFSQISLSQSLSQQKLLENMDDAQYEFVKAQRKLQMEQQLQEQDQEDQDGKIQGFKIPAHAPIRYTQPKSIEAETREQKLLHSNNTENVKSSKKKGNGRFLTLKPLPDSIIQESLEIQQGVNPFFIGRSEDCNCKIEDNRLSRVHCFIFKKRHAVGKSMYESPAQGLDDIWYCHTGTNVSYLNNNRMIQGTKFLLQDGDEIKIIWDKNNKFVIGFKVEINDTTGLFNEGLGMLQEQRVVLKQTAEEKDLVKKLTQMMAAQRANQPSASSSSMSAKKPPVSDTNNNGNNSVLNDLVESPINANTGNILKRIHSVSLSQSQIDPSKKVKRAKLDQTSKGPENLQFS
partner: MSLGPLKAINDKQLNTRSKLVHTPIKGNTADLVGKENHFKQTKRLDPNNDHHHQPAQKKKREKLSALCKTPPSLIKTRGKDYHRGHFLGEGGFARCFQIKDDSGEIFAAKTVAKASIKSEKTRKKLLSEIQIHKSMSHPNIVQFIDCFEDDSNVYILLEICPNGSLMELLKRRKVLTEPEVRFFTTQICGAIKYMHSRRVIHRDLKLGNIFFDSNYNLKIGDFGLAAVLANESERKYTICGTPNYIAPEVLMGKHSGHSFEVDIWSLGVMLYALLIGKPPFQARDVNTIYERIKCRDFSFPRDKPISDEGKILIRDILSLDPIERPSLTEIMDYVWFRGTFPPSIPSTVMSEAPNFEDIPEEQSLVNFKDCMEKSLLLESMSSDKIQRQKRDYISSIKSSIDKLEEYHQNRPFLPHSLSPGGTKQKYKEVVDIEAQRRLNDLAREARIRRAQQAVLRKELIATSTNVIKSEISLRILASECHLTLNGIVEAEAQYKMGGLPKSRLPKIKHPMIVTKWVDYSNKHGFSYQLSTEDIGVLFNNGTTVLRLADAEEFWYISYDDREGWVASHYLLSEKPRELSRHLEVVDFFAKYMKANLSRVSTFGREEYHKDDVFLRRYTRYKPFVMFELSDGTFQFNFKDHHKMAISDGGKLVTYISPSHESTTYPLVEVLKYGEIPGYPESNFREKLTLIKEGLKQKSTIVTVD

Variants of: B1
Details: with cdc5_yeast CDC5, P32562

Row | Variant | effect of a mutation on the interaction
1 | R70A;R605A | disrupting interaction
